The values below come from article PMC11096469.

The target of experiment [1] is C_(γ1-3) chain (VH-deleted human IgG1 heavy chain) (human). Kind of experiment: non-reducing SDS-PAGE with immunoblot; culture supernatants of HEK293 transfectants 48 h after transfection; 4-20% gels, reducing and non-reducing; probed with anti-human IgG-Fc and anti-human Cκ; covalent assembly.
Experiment [2] deals with C_(γ2-3) chain (Fc fragment containing the hinge region) (human). The experiment is described as above.
Experiment [3] addresses Cκ chain (Vκ-deleted human kappa light chain) (human) (UniProt P01834). Description: non-reducing SDS-PAGE with immunoblot; culture supernatants of HEK293-BiP cells transfected with LCs alone, 48 h after transfection; reducing and non-reducing gels.

By stoichiometry N is commonly meant a count of units in the complex or per binding partner.

For the substance “C_(γ1-3) chain (VH-deleted human IgG1 heavy chain) (domain or fragment)”, the stoichiometry N in experiment [1] turned out to be 2.
With “C_(γ2-3) chain (Fc fragment containing the hinge region) (domain or fragment)”, the stoichiometry N in experiment [2] amounted to 2.
Substance “Cκ chain (Vκ-deleted human kappa light chain) (from UniProt P01834 1-107) (domain or fragment)” returned a stoichiometry N in experiment [3] of 2.
